The results in this text go back to PMC11148139.

Where two headings read alike, the source gives them in different places.

Consider “GCH1 (GTP cyclohydrolase I): S81D phosphomimetic”, for which the other result (phosphorylation at S81) is “increases”.

For the substance LDHA (lactate dehydrogenase A): C163A, the enzymatic_activity result (other: S-nitrosylation at C163) is reported as “decreases”.

Consider “LDHA (lactate dehydrogenase A): C163A/C293A (2C-A)”, for which the localisation_or_trafficking result was “decreases” (other: S-nitrosylation at C163) and “decreases” (other: S-nitrosylation at C293).

Consider LDHA (lactate dehydrogenase A): C293A, for which the enzymatic_activity entry (other: S-nitrosylation at C293) is given as “decreases”.
